Laboratory results as given in publication PMC6754785 (Nature microbiology, 2019).

Molecular target: T1, NXF1 (residues 117–619) (human, UniProt Q9UBU9 117-619)
T1 sequence: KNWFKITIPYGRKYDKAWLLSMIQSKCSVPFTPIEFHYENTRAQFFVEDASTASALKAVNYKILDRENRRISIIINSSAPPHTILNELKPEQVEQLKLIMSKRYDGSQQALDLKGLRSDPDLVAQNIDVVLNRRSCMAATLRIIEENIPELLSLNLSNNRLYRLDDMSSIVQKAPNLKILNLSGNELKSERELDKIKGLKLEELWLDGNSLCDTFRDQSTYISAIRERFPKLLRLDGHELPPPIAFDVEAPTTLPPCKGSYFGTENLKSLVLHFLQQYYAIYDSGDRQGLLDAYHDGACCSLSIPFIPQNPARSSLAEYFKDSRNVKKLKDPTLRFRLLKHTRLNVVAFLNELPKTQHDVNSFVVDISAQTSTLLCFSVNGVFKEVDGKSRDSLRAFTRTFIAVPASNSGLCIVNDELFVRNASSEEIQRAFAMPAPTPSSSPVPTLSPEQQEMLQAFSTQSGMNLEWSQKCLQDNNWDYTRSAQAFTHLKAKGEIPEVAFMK
Assay: crystal structure

B1: NXT1 (residues 1–140) (natural protein)
chain: MASVDFKTYVDQACRAAEEFVNVYYTTMDKRRRLLSRLYMGTATLVWNGNAVSGQESLSEFFEMLPSSEFQISVVDCQPVHDEATPSQTTVLVVICGSVKFEGNKQRDFNQNFILTAQASPSNTVWKIASDCFRFQDWAS
binding result: binds
